Experimental data taken from patent US20250339569A1, “CARBONIC ANHYDRASE IX LIGANDS” (priority 2021, published 2025).

Target: human carbonic anhydrase 9 (CAIX) (human), Q16790
Assay: FACS competition on HT-29 cells, competitor tracer 3BP-2776; category A = pIC50 >8.0

pIC50: > 8 pic50
B1: 3BP-4179 (peptide)
peptide: VCCEPDWLTWCC
modifications: not checked
